# Assay results published in patent US20230265151A1, “GIP/GLP1 CO-AGONIST COMPOUNDS” (priority 2020, published 2023).
# Where a chain is given by its changes, count along the chain named. *1 amine or outer side, *2 acyl side, *3 side chain or, on linkers, in order; H or OH if unused. Where no end group is shown, it is not given here. Side-chain parts run from the residue outwards. [ ]: non-standard residue; d: D form. The star is where a group is joined. αMePhe(2-F) = C[C@](N)(Cc1ccccc1F)C(=O)O; γGlu = O=C(O)[C@H](CCC(=O)[*:2])N[*:1]; αMeY = C[C@](N)(Cc1ccc(O)cc1)C(=O)O; 4Pal = N[C@@H](Cc1ccncc1)C(=O)O; αMeL = CC(C)C[C@](C)(N)C(=O)O; Lauroyl = CCCCCCCCCCCC(=O)*; Orn = NCCC[C@H](N)C(=O)O; AEEA = NCCOCCOCC(=O)O; Aib = CC(C)(N)C(=O)O
# T1: human GIP receptor (human, UniProt P48546 22-466)
# T1 sequence (looked up): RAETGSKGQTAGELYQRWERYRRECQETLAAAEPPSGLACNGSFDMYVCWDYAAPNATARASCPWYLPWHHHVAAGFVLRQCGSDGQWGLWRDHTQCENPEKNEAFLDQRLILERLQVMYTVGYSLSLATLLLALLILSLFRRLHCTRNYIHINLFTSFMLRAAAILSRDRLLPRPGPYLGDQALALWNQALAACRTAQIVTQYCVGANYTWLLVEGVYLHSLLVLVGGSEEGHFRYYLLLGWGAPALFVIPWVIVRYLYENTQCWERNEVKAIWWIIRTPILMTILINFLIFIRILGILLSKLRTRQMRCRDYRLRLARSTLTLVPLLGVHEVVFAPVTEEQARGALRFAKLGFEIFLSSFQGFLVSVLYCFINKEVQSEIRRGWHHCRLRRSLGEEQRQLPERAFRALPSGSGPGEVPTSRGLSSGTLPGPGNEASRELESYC
# T2: human GIP receptor (human) (UniProt P48546)
# T2 sequence (looked up): T1 sequence (looked up)
# B1: Example 418 (peptide)
# peptide: YXEGTXTSDXXIXLDXKAQXXFIXXLIEGGPSSGAPPPSK
# modifications: Y-Aib-EGT-αMeF(2F)-TSD-4Pal-Aib-I-αMeL-LD-Orn-K((2-[2-(2-Amino-ethoxy)-ethoxy]-acetyl)2-(γ-Glu)-CO-(CH2)10-CH3)AQ-Aib-Orn-FI-(D-Glu)-αMeY-LIEGGPSSGAPPPSK((2-[2-(2-Amino-ethoxy)-ethoxy]-acetyl)2-(γ-Glu)-CO-(CH2)10-CH3)-NH2
# B2: Example 439 (peptide)
# peptide: B1 peptide with X21E, F22X
# modifications: Y-Aib-EGT-αMeF(2F)-TSD-4Pal-Aib-I-αMeL-LD-Orn-K((2-[2-(2-Amino-ethoxy)-ethoxy]-acetyl)3-(Y-Glu)-CO-(CH2)10-CH3)AQ-Aib-E-αMeF-I-(D-Glu)-αMeY-LIEGGPSSGAPPPSK((2-[2-(2-Amino-ethoxy)-ethoxy]-acetyl)3-(γ-Glu)-CO-(CH2)10-CH3)-NH2
# B3: Example 420 (peptide)
# peptide: B1 peptide
# modifications: Y-Aib-EGT-αMeF(2F)-TSD-4Pal-Aib-I-αMeL-LD-Orn-K((2-[2-(2-Amino-ethoxy)-ethoxy]-acetyl)2-(γ-Glu)-CO-(CH2)10-CH3)AQ-Aib-4Pal-FI-(D-Glu)-αMeY-LIEGGPSSGAPPPSK((2-[2-(2-Amino-ethoxy)-ethoxyl-acetyl)2-(γ-Glu)-CO-(CH2)10-CH3)-NH2
# B4: Example 431 (peptide)
# peptide: B1 peptide with X21E, F22X
# modifications: not fully specified; Y-Aib-EGT-αMeF(2F)-TSD-4Pal-Aib-I-αMeL-LD-Orn-K((2-[2-(2-Amino-ethoxy)-ethoxy]-acetyl)2-(γ Glu)-CO-(CH2)10C3)AQ-Aib-E-αMeF-I-(D-Glu)-αMeY-LIEGGPSSGAPPPSK((2-[2-(2-Amino-ethoxy)-ethoxy]-acetyl)2-(γ-Glu)-CO-(CH2)10-CH3)-NH2
# B5: Example 428 (peptide)
# peptide: B1 peptide with X21E
# modifications: Y-Aib-EGT-αMeF(2F)-TSD-4Pal-Aib-I-αMeL-LD-Orn-K((2-[2-(2-Amino-ethoxy)-ethoxy]-acetyl)-(γ-Glu)-CO-(CH2)10-CH3)AQ-Aib-EFI-(D-Glu)-αMeY-LIEGGPSSGAPPPSK((2-[2-(2-Amino-ethoxy)-ethoxy]-acetyl)-(γ-Glu)-CO-(CH2)10-CH3)-NH2
# B6: Example 435 (peptide)
# peptide: B1 peptide
# modifications: Y-Aib-EGT-αMeF(2F)-TSD-4Pal-Aib-I-αMeL-LD-Orn-K((2-[2-(2-Amino-ethoxy)-ethoxy]-acetyl)3-(γ Glu)-CO-(CH2)10CH3)AQ-Aib-Orn-FI-(D-Glu)-αMeY-LIEGGPSSGAPPPSK((2-[2-(2-Amino-ethoxy)-ethoxy]-acetyl)3-(γ-Glu)-CO-(CH2)10-CH3)-NH2
# B7: Example 424 (peptide)
# peptide: B1 peptide with X21E
# modifications: Y-Aib-EGT-αMeF(2F)-TSD-4Pal-Aib-I-αMeL-LD-Orn-K((2-[2-(2-Amino-ethoxy)-ethoxy]-acetyl)3-(γ-Glu)-CO-(CH2)10-CH3)AQ-Aib-EFI-(D-Glu)-αMeY-LIEGGPSSGAPPPSK((2-[2-(2-Amino-ethoxy)-ethoxy]-acetyl)3-(γ-Glu)-CO-(CH2)10-CH3)-NH2
# B8: Example 415 (peptide)
# peptide: Y[Aib]EGT[αMePhe(2-F)]TSDK([AEEA-AEEA-γGlu-Lauroyl])[Aib]I[αMeL]LD[Orn]K([AEEA-AEEA-γGlu-Lauroyl])AQ[Aib][4Pal]FI[dE][αMeY]LIEGGPSSGAPPPS-NH2
# B9: Example 417 (peptide)
# peptide: YXEGTXTSDKXIXLDXKAQXXFIXXLIEGGPSSGAPPPS
# modifications: Y-Aib-EGT-αMeF(2F)-TSDK((2-[2-(2-Amino-ethoxy)-ethoxy]-acetyl)2-(γ-Glu)-CO-(CH2)10-CH3)-Aib-I-αMeL-LD-Orn-K((2-[2-(2-Amino-ethoxy)-ethoxy]-acetyl)2-(γ-Glu)-CO-(CH2)10-CH3)AQ-Aib-Orn-FI-(D-Glu)-αMeY-LIEGGPSSGAPPPS-NH2
# B10: Example 437 (peptide)
# peptide: B9 peptide with K10X, X21K, F22X
# modifications: Y-Aib-EGT-αMeF(2F)-TSD-4Pal-Aib-I-αMeL-LD-Orn-K((2-[2-(2-Amino-ethoxy)-ethoxy]-acetyl)3-(γ-Glu)-CO-(CH2)10-CH3)AQ-Aib-K((2-[2-(2-Amino-ethoxy)-ethoxy]-acetyl)3-(γ-Glu)-CO-(CH2)10-CH3)-αMeF-I-(D-Glu)-αMeY-LIEGGPSSGAPPPS-NH2
# B11: Example 422 (peptide)
# peptide: B9 peptide with K10X, X21K
# modifications: Y-Aib-EGT-αMeF(2F)-TSD-4Pal-Aib-I-αMeL-LD-Orn-K((2-[2-(2-Amino-ethoxy)-ethoxy]-acetyl)3-(γ-Glu)-CO-(CH2)10-CH3)AQ-Aib-K((2-[2-(2-Amino-ethoxy)-ethoxy]-acetyl)3-(γ-Glu)-CO-(CH2)10-CH3)FI-(D-Glu)-αMeY-LIEGGPSSGAPPPS-NH2
# Molecular target: human GLP-1 receptor (human, UniProt P43220 24-463)
# Assay: cell-based or functional assay
Binder,cAMP EC50 (1.0% HSA) [nM],cAMP Emax (1.0% HSA) [%]
B1,1.72,98.8
B2,9.25,97
B3,10,109
B4,17.5,91.6
B5,10.2,
B6,1.63,97.8
B7,3.07,
B8,5.72,
B9,2.66,
B10,9.65,91.2
B11,3.84,

# Molecular target: T1, human GIP receptor
# Assay: cell-based or functional assay
Binder,cAMP EC50 (1.0% HSA) [nM],cAMP Emax (1.0% HSA) [%]
B1,0.126,
B2,0.396,91.7
B3,0.351,
B4,0.645,98
B5,0.748,
B6,0.0873,98.7
B7,0.159,
B8,0.492,
B9,0.201,
B10,0.461,96.5
B11,0.199,97.5

# Molecular target: human glucagon receptor (human, UniProt P47871 26-477)
# Assay: cell-based or functional assay
# Sequence of human glucagon receptor (P47871 26-477): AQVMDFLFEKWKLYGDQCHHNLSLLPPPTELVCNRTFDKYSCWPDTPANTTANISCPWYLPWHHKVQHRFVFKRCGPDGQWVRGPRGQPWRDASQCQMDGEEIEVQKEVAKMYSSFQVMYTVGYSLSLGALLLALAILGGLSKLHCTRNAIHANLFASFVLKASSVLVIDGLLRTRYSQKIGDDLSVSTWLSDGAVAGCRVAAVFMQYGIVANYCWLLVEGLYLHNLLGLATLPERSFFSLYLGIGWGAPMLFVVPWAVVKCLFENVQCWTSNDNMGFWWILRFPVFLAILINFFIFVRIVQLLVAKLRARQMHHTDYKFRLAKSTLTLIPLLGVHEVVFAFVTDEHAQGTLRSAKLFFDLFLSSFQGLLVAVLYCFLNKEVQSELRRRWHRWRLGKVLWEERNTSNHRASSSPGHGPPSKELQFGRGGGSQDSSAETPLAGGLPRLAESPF
row,Binder,cAMP EC50 (1.0% HSA) [nM]
1,B1,> 9950
2,B2,> 9950
3,B3,> 9950
4,B4,> 9950
5,B5,> 9950
6,B6,> 9950
7,B7,> 9950
8,B8,> 9950
9,B9,> 9950
10,B10,> 9950
11,B11,> 9950

# Molecular target: hGLP-1R (Homo sapiens, UniProt P43220)
# Assay: cell-based or functional assay
Binder,cAMP EC50 [nM],cAMP Emax [%]
B1,0.0603,93.7
B2,0.11,95.7
B3,0.123,99.7
B4,0.134,99.2
B5,0.102,106
B6,0.0527,111
B7,0.0427,102
B8,0.122,109
B9,0.0675,109
B10,0.249,89.2
B11,0.0729,106

# Molecular target: T2, human GIP receptor (human)
# Assay: cell-based or functional assay
Binder,cAMP EC50 [nM],cAMP Emax [%]
B1,0.00599,91
B2,0.00799,
B3,0.00964,101
B4,0.0097,104
B5,0.00797,95.5
B6,0.00517,104
B7,0.00502,101
B8,0.00991,101
B9,0.00651,101
B10,0.0146,94.8
B11,0.00655,104

# Molecular target: human glucagon receptor (human) (UniProt P47871)
# Assay: cell-based or functional assay
row,Binder,cAMP EC50 [nM]
1,B1,> 9950
2,B2,> 9950
3,B3,> 9950
4,B4,> 9950
5,B5,> 9950
6,B6,> 9950
7,B7,> 9950
8,B8,> 9950
9,B9,> 9950
10,B10,> 9950
11,B11,> 9950
